Laboratory results published in patent publication US20120331590A1.

Assays:
[1] = target: BBMV's from FAW (brush border membrane vesicle proteins of Spodoptera frugiperda larval midgut); experiment: homologous competition: unlabeled Cry1Be displacing 0.5 nM 125I Cry1Be from FAW BBMV's
[2] = target: BBMV's from FAW (brush border membrane vesicle proteins of Spodoptera frugiperda larval midgut); experiment: heterologous competition: unlabeled Cry1Be against 0.5 nM 125I Cry1Da on FAW BBMV's (the sites that Cry1Da binds, not Cry1Be's own sites)
[3] = target: BBMV's from FAW (brush border membrane vesicle proteins of Spodoptera frugiperda larval midgut); experiment: homologous competition: unlabeled Cry1Da displacing 0.5 nM 125I Cry1Da from FAW BBMV's
[4] = target: BBMV's from FAW (brush border membrane vesicle proteins of Spodoptera frugiperda larval midgut); experiment: heterologous competition: 1,000 nM unlabeled Cry1Da against 0.5 nM 125I Cry1Be on FAW BBMV's (the sites that Cry1Be binds)

Substance | IC50 [1] [nM] | IC50 [2] [nM] | IC50 [3] [nM] | percent displacement of 125I Cry1Be [4] [%]
Cry1Be (unlabeled, truncated Cry toxin) (from UniProt O85805 35-641) (ligand) | 2 | > 1000 | – | –
Cry1Da (unlabeled, truncated Cry toxin) (from UniProt P19415 28-594) (ligand) | – | – | 1.5 | < 50
